Test results from paper PMC4943950, “T4 Phage Tail Adhesin Gp12 Counteracts LPS-Induced Inflammation In Vivo” (Frontiers in Microbiology, 2016).

Biological target: the molecule itself
Experiment: SDS-PAGE of the non-heated sample (SDS-resistant oligomer); purified gp12 final preparation, not heated before SDS-PAGE, ambient temperature; trimer band at 172.5 kDa

B1: T4 phage short tail fiber protein (tail adhesin) gp12, recombinant, His-tagged (natural protein, bacteriophage T4, UniProt P10930 1-527, looked up)
chain: MSNNTYQHVSNESRYVKFDPTDTNFPPEITDVQAAIAAISPAGVNGVPDASSTTKGILFIPTEQEVIDGTNNTKAVTPATLATRLSYPNATETVYGLTRYSTNDEAIAGVNNESSITPAKFTVALNNAFETRVSTESSNGVIKISSLPQALAGADDTTAMTPLKTQQLAIKLIAQIAPSETTATESDQGVVQLATVAQVRQGTLREGYAISPYTFMNSSSTEEYKGVIKLGTQSEVNSNNASVAVTGATLNGRGSTTSMRGVVKLTTTAGSQSGGDASSALAWNADVIQQRGGQIIYGTLRIEDTFTIANGGANITGTVRMTGGYIQGNRIVTQNEIDRTIPVGAIMMWAADSLPSDAWRFCHGGTVSASDCPLYASRIGTRYGGNPSNPGLPDMRGLFVRGSGRGSHLTNPNVNGNDQFGKPRLGVGCTGGYVGEVQIQQMSYHKHAGGFGEHDDLGAFGNTRRSNFVGTRKGLDWDNRSYFTNDGYEIDPESQRNSKYTLNRPELIGNETRPWNISLNYIIKVKE
notes: No step that removes the His-Tag is described; also called phage adhesin
  stoichiometry N: 3
